Data on six substances can be found in PMC2798062.

In data set [1] the test system is C[C@H]1C=C2C=C[C@H](C)[C@H](CC[C@@H](O)C[C@@H](O)CC(=O)O)[C@H]2[C@@H](O)C1. The data set can be described thus: purified protein. The class given is biochemical, Aspergillus terreus. The following applies: 2 mM DMB-SMMP fixed, 10% DMSO, 25°C.
Another data set has as its system CCC(C)(C)C(=O)SCCC(=O)OC. The data set can be described thus: purified protein. The class given is biochemical, Aspergillus terreus. To be noted: 2 mM MJA fixed; 10% DMSO; table header prints mM^-1, text b12 prints mM; 25.0 °C.

On to “LovD G0 (Aspergillus terreus; A86V/C40A/C60N)”, for which, in data set [1] (mutant G1), the Km was determined as 740 ± 160 µM and the kcat is 0.0132 ± 0.0005 s⁻¹.
On to “LovD G0 (Aspergillus terreus; A190T/A86V/C40A/C60N/D12G/G275S)”, for which, in data set [1] (mutant G3), the Km was 770 ± 110 µM and the kcat worked out at 0.031 ± 0.0015 s⁻¹.
Take “LovD G0 (Aspergillus terreus; A190T/A86V/C40A/C60N/D12G/G275S/H161Y/K26E)”: in data set [1] (mutant G5), the Km was 740 ± 30 µM and the kcat was 0.0435 ± 0.0005 s⁻¹.
As for “LovD G0 (Aspergillus terreus; A190T/A86V/C40A/C60N/D12G/G275S/H161Y/K26E/L361M/V334D)”, in data set [1] (mutant G6), the Km was found to be 700 ± 70 µM and the kcat is 0.055 ± 0.001 s⁻¹.
Regarding “LovD G0 (Aspergillus terreus; A190T/A86V/C40A/C60N/D12G/G275S/H161Y/K26E/V334F)”, in data set [1] (mutant G7), the Km was determined as 700 ± 40 µM and the kcat turned out to be 0.08 ± 0.001 s⁻¹.
On to “LovD G0 (Aspergillus terreus; C40A/C60N)”, for which, in the data set with CCC(C)(C)C(=O)SCCC(=O)OC, the Km turned out to be 0.67 ± 0.12 mM and the kcat is 0.011 ± 0.0005 s⁻¹. Also, in data set [1], the Km was 770 ± 170 µM and the kcat was 0.011 ± 0.0005 s⁻¹.
